Our source for the EC50 values is US20240132559, “COMPOSITIONS AND METHODS FOR MODULATING MYC EXPRESSION” (FLAGSHIP PIONEERING INNOVATIONS V, INC., published 2024).

The data set deals with ZF9-MQ1 (synthetic). Briefly: cell_activity; MYC mRNA down-regulation in A549 and HCC95, 72 h. As to conditions: tags: NLS, MQ1 DNA methyltransferase, HA.
Chain of ZF9-MQ1 (synthetic) (chain, as listed by the source): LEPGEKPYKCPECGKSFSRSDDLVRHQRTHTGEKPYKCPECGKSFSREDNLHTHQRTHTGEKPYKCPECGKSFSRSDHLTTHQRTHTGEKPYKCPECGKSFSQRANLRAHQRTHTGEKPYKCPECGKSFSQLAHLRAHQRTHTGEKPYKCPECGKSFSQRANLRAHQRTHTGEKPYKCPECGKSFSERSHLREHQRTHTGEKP

B1: ZF9 target site in MYC promoter (dsDNA)
DNA 1: AGCAAAAGAAAATGGTAGGCG
DNA 2: CGCCTACCATTTTCTTTTGCT
Molecule B1 came in with an EC50 of 0.08 ug/ml LNP/mRNA.
